Assay results: the supplement of paper PMC11316812
± gives the standard deviation of the averaged measurements.

Legend:
MCF7 = test: percentage of EdU-negative (G0-arrested) nuclei per well, 72 h; higher = more G0 arrest; details: reference: sequence is the full UniProt precursor, the tested protein was the secreted form or ectodomain
hTERT-HMEC = test: as above; details: reference: sequence is the full UniProt precursor, the tested protein was the secreted form or ectodomain
[1] = protein concentration 0.0225 µM
[2] = protein concentration 0.03125 µM
[3] = protein concentration 0.3125 µM
[4] = protein concentration 0.0301575 µM
[5] = protein concentration 0.301575 µM
[6] = protein concentration 0.0229925 µM
[7] = protein concentration 0.229925 µM
[8] = protein concentration 0.027515 µM
[9] = protein concentration 0.27515 µM
[10] = protein concentration 0.0075 µM
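Also: secreted proteins added to cultured cells, EdU pulse at the end, nuclei found by Hoechst imaging, EdU status from nuclear versus surrounding ring intensity ratio, PBS as neutral control.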

Sequence | percentage of EdU-negative (MCF7; [1]) [%] | percentage of EdU-negative (MCF7; protein concentration 0.225 µM) [%] | percentage of EdU-negative (hTERT-HMEC; [1]) [%] | percentage of EdU-negative (hTERT-HMEC; protein concentration 0.225 µM) [%] | other results
MWLLLTLSFLLASTAAQDGDKLLEGDECAPHSQPWQVALYERGRFNCGASLISPHWVLSAAHCQSRFMRVRLGEHNLRKRDGPEQLRTTSRVIPHPRYEARSHRNDIMLLRLVQPARLNPQVRPAVLPTRCPHPGEACVVSGWGLVSHNEPGTAGSPRSQVSLPDTLHCANISIISDTSCDKSYPGRLTNTMVCAGAEGRGAESCEGDSGGPLVCGGILQGIVSWGDVPCDNTTKPGVYTKVCHYLEWIRETMKRN [Q9H2R5] | 22.4 ± 2 | 25.76 ± 0.13 | 5.58 ± 0.041 | 5.86 ± 1.2 | 
MKRLVCVLLVCSSAVAQLHKDPTLDHHWHLWKKTYGKQYKEKNEEAVRRLIWEKNLKFVMLHNLEHSMGMHSYDLGMNHLGDMTSEEVMSLMSSLRVPSQWQRNITYKSNPNRILPDSVDWREKGCVTEVKYQGSCGACWAFSAVGALEAQLKLKTGKLVSLSAQNLVDCSTEKYGNKGCNGGFMTTAFQYIIDNKGIDSDASYPYKAMDQKCQYDSKYRAATCSKYTELPYGREDVLKEAVANKGPVSVGVDARHPSFFLYRSGVYYEPSCTQNVNHGVLVVGYGDLNGKEYWLVKNSWGHNFGEEGYIRMARNKGNHCGIASFPSYPEI | 25.8 ± 0.69 | 28.92 ± 0.25 | 4.72 ± 0.47 | 9.97 ± 2.1 | 
MTVLAPAWSPTTYLLLLLLLSSGLSGTQDCSFQHSPISSDFAVKIRELSDYLLQDYPVTVASNLQDEELCGGLWRLVLAQRWMERLKTVAGSKMQGLLERVNTEIHFVTKCAFQPPPSCLRFVQTNISRLLQETSEQLVALKPWITRQNFSRCLELQCQPDSSTLPPPWSPRPLEATAPTAPQPPLLLLLLLPVGLLLLAAAWCLHWQRTRRRTPRPGEQVPPVPSPQDLLLVEH | 25 ± 0.85 | 25.7 ± 0.9 | 5 ± 0.57 | 5.47 ± 0.61 | 
MKKFFTVAILAGSVLSTAHGSLLNLKAMVEAVTGRSAILSFVGYGCYCGLGGRGQPKDEVDWCCHAHDCCYQELFDQGCHPYVDHYDHTIENNTEIVCSDLNKTECDKQTCMCDKNMVLCLMNQTYREEYRGFLNVYCQGPTPNCSIYEPPPEEVTCSHQSPAPPAPP [Q9BZM2] | 24.06 ± 0.22 | 26 ± 1.2 | 5.18 ± 0.43 | 5.34 ± 1.1 | 
MSLSFLLLLFFSHLILSAWAHGEKRLAPKGQPGPAATDRNPRGSSSRQSSSSAMSSSSASSSPAASLGSQGSGLEQSSFQWSPSGRRTGSLYCRVGIGFHLQIYPDGKVNGSHEANMLSVLEIFAVSQGIVGIRGVFSNKFLAMSKKGKLHASAKFTDDCKFRERFQENSYNTYASAIHRTEKTGREWYVALNKRGKAKRGCSPRVKPQHISTHFLPRFKQSEQPELSFTVTVPEKKKPPSPIKPKIPLSAPRKNTNSVKYRLKFRFG |  |  |  |  | percentage of EdU-negative (MCF7; [2]): 27.9 ± 2.3%; percentage of EdU-negative (MCF7; [3]): 28 ± 0.77%; percentage of EdU-negative (hTERT-HMEC; [2]): 4.71 ± 0.44%; percentage of EdU-negative (hTERT-HMEC; [3]): 5.28 ± 0.53%
MLIFWTITLFLLGAAKGKEVCYEDLGCFSDTEPWGGTAIRPLKILPWSPEKIGTRFLLYTNENPNNFQILLLSDPSTIEASNFQMDRKTRFIIHGFIDKGDESWVTDMCKKLFEVEEVNCICVDWKKGSQATYTQAANNVRVVGAQVAQMLDILLTEYSYPPSKVHLIGHSLGAHVAGEAGSKTPGLSRITGLDPVEASFESTPEEVRLDPSDADFVDVIHTDAAPLIPFLGFGTNQQMGHLDFFPNGGESMPGCKKNALSQIVDLDGIWAGTRDFVACNHLRSYKYYLESILNPDGFAAYPCTSYKSFESDKCFPCPDQGCPQMGHYADKFAGRTSEEQQKFFLNTGEASNFARWRYGVSITLSGRTATGQIKVALFGNKGNTHQYSIFRGILKPGSTHSYEFDAKLDVGTIEKVKFLWNNNVINPTLPKVGATKITVQKGEEKTVYNFCSEDTVREDTLLTLTPC |  |  |  |  | percentage of EdU-negative (MCF7; [4]): 25.8 ± 0.77%; percentage of EdU-negative (MCF7; [5]): 26.6 ± 1.5%; percentage of EdU-negative (hTERT-HMEC; [4]): 5.42 ± 0.23%; percentage of EdU-negative (hTERT-HMEC; [5]): 5.14 ± 0.29%
MARPNKFLLWFCCFAWLCFPISLGSQASGGEAQIAASAELESGAMPWSLLQHIDERDRAGLLPALFKVLSVGRGGSPRLQPDSRALHYMKKLYKTYATKEGIPKSNRSHLYNTVRLFTPCTRHKQAPGDQVTGILPSVELLFNLDRITTVEHLLKSVLLYNINNSVSFSSAVKCVCNLMIKEPKSSSRTLGRAPYSFTFNSQFEFGKKHKWIQIDVTSLLQPLVASNKRSIHMSINFTCMKDQLEHPSAQNGLFNMTLVSPSLILYLNDTSAQAYHSWYSLHYKRRPSQGPDQERSLSAYPVGEEAAEDGRSSHHRHRRGQETVSSELKKPLGPASFNLSEYFRQFLLPQNECELHDFRLSFSQLKWDNWIVAPHRYNPRYCKGDCPRAVGHRYGSPVHTMVQNIIYEKLDSSVPRPSCVPAKYSPLSVLTIEPDGSIAYKEYEDMIATKCTCR |  |  |  |  | percentage of EdU-negative (MCF7; [6]): 24.683 ± 0.017%; percentage of EdU-negative (MCF7; [7]): 29.8 ± 2.2%; percentage of EdU-negative (hTERT-HMEC; [6]): 4.1 ± 0.078%; percentage of EdU-negative (hTERT-HMEC; [7]): 4.84 ± 1.5%
MLRMRVPALLVLLFCFRGRAGPSPHFLQQPEDLVVLLGEEARLPCALGAYWGLVQWTKSGLALGGQRDLPGWSRYWISGNAANGQHDLHIRPVELEDEASYECQATQAGLRSRPAQLHVLVPPEAPQVLGGPSVSLVAGVPANLTCRSRGDARPTPELLWFRDGVLLDGATFHQTLLKEGTPGSVESTLTLTPFSHDDGATFVCRARSQALPTGRDTAITLSLQYPPEVTLSASPHTVQEGEKVIFLCQATAQPPVTGYRWAKGGSPVLGARGPRLEVVADASFLTEPVSCEVSNAVGSANRSTALDVLFGPILQAKPEPVSVDVGEDASFSCAWRGNPLPRVTWTRRGGAQVLGSGATLRLPSVGPEDAGDYVCRAEAGLSGLRGGAAEARLTVNAPPVVTALHSAPAFLRGPARLQCLVFASPAPDAVVWSWDEGFLEAGSQGRFLVETFPAPESRGGLGPGLISVLHISGTQESDFSRSFNCSARNRLGEGGAQASLGRRDLLPTVRIVAGVAAATTTLLMVITGVALCCWRHSKASASFSEQKNLMRIPGSSDGSSSRGPEEEETGSREDRGPIVHTDHSDLVLEEEGTLETKDPTNGYYKVRGVSVSLSLGEAPGGGLFLPPPSPLGPPGTPTFYDFNPHLGMVPPCRLYRARAGYLTTPHPRAFTSYIKPTSFGPPDLAPGTPPFPYAAFPTPSHPRLQTHV [Q6UWL6] | 26.9 ± 3.4 | 28.2 ± 1.2 | 5.24 ± 0.16 | 5.69 ± 0.77 | 
MQALVLLLCIGALLGHSSCQNPASPPEEGSPDPDSTGALVEEEDPFFKVPVNKLAAAVSNFGYDLYRVRSSTSPTTNVLLSPLSVATALSALSLGAEQRTESIIHRALYYDLISSPDIHGTYKELLDTVTAPQKNLKSASRIVFEKKLRIKSSFVAPLEKSYGTRPRVLTGNPRLDLQEINNWVQAQMKGKLARSTKEIPDEISILLLGVAHFKGQWVTKFDSRKTSLEDFYLDEERTVRVPMMSDPKAVLRYGLDSDLSCKIAQLPLTGSMSIIFFLPLKVTQNLTLIEESLTSEFIHDIDRELKTVQAVLTVPKLKLSYEGEVTKSLQEMKLQSLFDSPDFSKITGKPIKLTQVEHRAGFEWNEDGAGTTPSPGLQPAHLTFPLDYHLNQPFIFVLRDTDTGALLFIGKILDPRGP |  |  |  |  | percentage of EdU-negative (MCF7; [8]): 26.5 ± 1.4%; percentage of EdU-negative (MCF7; [9]): 28 ± 0.47%; percentage of EdU-negative (hTERT-HMEC; [8]): 5.35 ± 0.62%; percentage of EdU-negative (hTERT-HMEC; [9]): 9.19 ± 1.1%
MCGSALAFFTAAFVCLQNDRRGPASFLWAAWVFSLVLGLGQGEDNRCASSNAASCARCLALGPECGWCVQEDFISGGSRSERCDIVSNLISKGCSVDSIEYPSVHVIIPTENEINTQVTPGEVSIQLRPGAEANFMLKVHPLKKYPVDLYYLVDVSASMHNNIEKLNSVGNDLSRKMAFFSRDFRLGFGSYVDKTVSPYISIHPERIHNQCSDYNLDCMPPHGYIHVLSLTENITEFEKAVHRQKISGNIDTPEGGFDAMLQAAVCESHIGWRKEAKRLLLVMTDQTSHLALDSKLAGIVVPNDGNCHLKNNVYVKSTTMEHPSLGQLSEKLIDNNINVIFAVQGKQFHWYKDLLPLLPGTIAGEIESKAANLNNLVVEAYQKLISEVKVQVENQVQGIYFNITAICPDGSRKPGMEGCRNVTSNDEVLFNVTVTMKKCDVTGGKNYAIIKPIGFNETAKIHIHRNCSCQCEDNRGPKGKCVDETFLDSKCFQCDENKCHFDEDQFSSESCKSHKDQPVCSGRGVCVCGKCSCHKIKLGKVYGKYCEKDDFSCPYHHGNLCAGHGECEAGRCQCFSGWEGDRCQCPSAAAQHCVNSKGQVCSGRGTCVCGRCECTDPRSIGRFCEHCPTCYTACKENWNCMQCLHPHNLSQAILDQCKTSCALMEQQHYVDQTSECFSSPSYLRIFFIIFIVTFLIGLLKVLIIRQVILQWNSNKIKSSSDYRVSASKKDKLILQSVCTRAVTYRREKPEEIKMDISKLNAHETFRCNF |  |  |  |  | percentage of EdU-negative (MCF7; [10]): 28.2 ± 3%; percentage of EdU-negative (MCF7; protein concentration 0.075 µM): 28.3 ± 2.1%; percentage of EdU-negative (hTERT-HMEC; [10]): 4.94 ± 0.66%; percentage of EdU-negative (hTERT-HMEC; protein concentration 0.075 µM): 6.65 ± 1.7%
MLPWLLVFSALGIQAWGDSSWNKTQAKQVSEGLQYLFENISQLTEKGLPTDVSTTVSRKAWGAEAVGCSIQLTTPVNVLVIHHVPGLECHDQTVCSQRLRELQAHHVHNNSGCDVAYNFLVGDDGRVYEGVGWNIQGVHTQGYNNISLGFAFFGTKKGHSPSPAALSAMENLITYAVQKGHLSSSYVQPLLGKGENCLAPRQKTSLKKACPGVVPRSVWGARETHCPRMTLPAKYGIIIHTAGRTCNISDECRLLVRDIQSFYIDRLKSCDIGYNFLVGQDGAIYEGVGWNVQGSSTPGYDDIALGITFMGTFTGIPPNAAALEAAQDLIQCAMVKGYLTPNYLLVGHSDVARTLSPGQALYNIISTWPHFKH [Q96LB8] | 24.7 ± 0.28 | 25 ± 1.5 | 5.75 ± 0.76 | 6.41 ± 1.2 | 
MKALLALPLLLLLSTPPCAPQVSGIRGDALERFCLQQPLDCDDIYAQGYQSDGVYLIYPSGPSVPVPVFCDMTTEGGKWTVFQKRFNGSVSFFRGWNDYKLGFGRADGEYWLGLQNMHLLTLKQKYELRVDLEDFENNTAYAKYADFSISPNAVSAEEDGYTLFVAGFEDGGAGDSLSYHSGQKFSTFDRDQDLFVQNCAALSSGAFWFRSCHFANLNGFYLGGSHLSYANGINWAQWKGFYYSLKRTEMKIRRA |  |  |  |  | percentage of EdU-negative (MCF7; [2]): 22.9 ± 0.61%; percentage of EdU-negative (MCF7; [3]): 26.2 ± 3.4%; percentage of EdU-negative (hTERT-HMEC; [2]): 4.11 ± 0.33%; percentage of EdU-negative (hTERT-HMEC; [3]): 4.91 ± 0.91%
